From the supplement of paper PMC9732359
± gives the uncertainty stated by the source.

Assay: protein stability index of a GFP-peptide fusion (yeast GPS) (PSI 1-4); higher = more stable; sorted into four equal gates, so the index is relative within each strain
Outline: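 Each library plasmid carries Cherry plus GFP with a tiled 17-residue yeast protein peptide fused downstream, and the pooled library was carried in yeast. Mid-log cultures in leucine-free medium were sorted into four equal gates by GFP/Cherry ratio. Reads from Illumina sequencing of PCR-amplified plasmids from each gate were assigned to strains by barcodes. Per peptide, the protein stability index was computed as the summed products of gate read frequency and gate number.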

| Sequence | protein stability index (doa10∆) | protein stability index (pdr5∆) | protein stability index (san1∆) | protein stability index (ubr1∆) |
| --- | --- | --- | --- | --- |
| SQWNDSSIDKIEDRDFL [SIR3] | 2.99 ± 0.17 | 3.21 ± 0.27 | 3.23 ± 0.28 | 3.32 ± 0.15 |
| ELALKTLSKTTDSSALT [PRE9] | 2.62 ± 0.057 | 2.1 ± 0.06 | 2.54 ± 0.065 | 2.73 ± 0.043 |
| QQIWKSPNFKNYLKYLE [SOH1] | 1.72 ± 0.047 | 1.91 ± 0.047 | 1.61 ± 0.047 | 2.22 ± 0.062 |
| VTFSPTGRLFQVEYALE [PRE5] | 3.28 ± 0.099 | 2.77 ± 0.12 | 2.93 ± 0.23 | 2.79 ± 0.062 |
| QPQETEEHHEEEPSRVD [RPT4] | 3.56 ± 0.064 | 3.44 ± 0.1 | 3.23 ± 0.074 | 3.22 ± 0.086 |
| LDQVGVPKSIAKTLTYP [RPO21] | 2.74 ± 0.064 | 2.83 ± 0.051 | 2.65 ± 0.043 | 2.99 ± 0.06 |
| FLQELLKKVQQQQQAAA [SWI1] | 2.06 ± 0.081 | 2.6 ± 0.088 | 2.47 ± 0.1 | 2.85 ± 0.1 |
| MNNQPQGTNSVPNSIGN [SNF5] | 2.87 ± 0.074 | 3.1 ± 0.096 | 3.04 ± 0.12 | 2.92 ± 0.055 |
| YKLNVRSNDPQSSLSKV [NUT2] | 3.21 ± 0.12 | 3.42 ± 0.12 | 3.33 ± 0.071 | 3.41 ± 0.095 |
| SISTYKDILNLASEVGD [ECM29] | 2.63 ± 0.07 | 2.65 ± 0.076 | 2.71 ± 0.071 | 2.77 ± 0.054 |
| IDNYITNSVRLFEVNPS [SRP21] | 2.61 ± 0.1 | 2.78 ± 0.088 | 2.54 ± 0.091 | 2.28 ± 0.12 |
| LQCHISGTTNFMRNGLL [UBP6] | 1.64 ± 0.1 | 1.66 ± 0.081 | 1.81 ± 0.15 | 2.31 ± 0.17 |
| AEEVRNFALTTLIDLVK [ECM29] | 2.59 ± 0.086 | 1.9 ± 0.075 | 1.78 ± 0.073 | 2 ± 0.059 |
| EPLTEIKNVIVSNRVAA [RPP0] | 1.6 ± 0.076 | 2.1 ± 0.062 | 1.77 ± 0.11 | 1.95 ± 0.07 |
| NVLCVNIKSNDFSIRKT [ECM29] | 2.52 ± 0.068 | 2.66 ± 0.099 | 2.58 ± 0.1 | 2.6 ± 0.071 |
| VLEERERGQKVKNVKNS [ARP9] | 2.71 ± 0.19 | 2.25 ± 0.078 | 2.71 ± 0.12 | 1.19 ± 0.074 |
| RILNFFDKNTKTTPNTA [YMR153W/NUP53] | 2.42 ± 0.051 | 2.53 ± 0.055 | 2.56 ± 0.048 | 2.43 ± 0.047 |
| MLLANISVARKIYDAFP [DIS3] | 1.69 ± 0.04 | 1.91 ± 0.041 | 2 ± 0.093 | 1.73 ± 0.041 |
| GKALVHHYEECAERVKI [QCR6] | 3.47 ± 0.093 | 3.28 ± 0.1 | 3.25 ± 0.073 | 3.39 ± 0.074 |
| RSNKIKVVKTPGGILRA [RPL34A] | 2.64 ± 0.068 | 2.12 ± 0.047 | 2.49 ± 0.064 | 2.2 ± 0.041 |
| VKKVIEINPFLLGTMAG [PRE2] | 1.37 ± 0.14 | 1.86 ± 0.18 | 1.38 ± 0.28 |  |
| SVANTPSEIPDAHKAEQ [SWI3] | 3.04 ± 0.066 | 3.25 ± 0.065 | 3.42 ± 0.077 | 3.03 ± 0.061 |
| IERLTKRQFNNSYWLII [ITC1] | 3.01 ± 0.077 | 2.62 ± 0.099 | 2.16 ± 0.097 | 2.13 ± 0.071 |
| NTEQGDSDELGGESMEG [SNM1] | 3.45 ± 0.1 | 3.54 ± 0.11 | 3.4 ± 0.093 | 3.39 ± 0.085 |
| YQELGSLQSSSQTQLEN [MED2] | 2.96 ± 0.11 | 3.3 ± 0.082 | 3.08 ± 0.08 | 3.17 ± 0.072 |

| Sequence | protein stability index (doa10∆) | protein stability index (pdr5∆) | protein stability index (san1∆) | protein stability index (ubr1∆) |
| --- | --- | --- | --- | --- |
| TENEKFISYHDKYLCML [NUT1] | 2.91 ± 0.056 | 3 ± 0.055 | 3.23 ± 0.049 | 3.11 ± 0.053 |
| QDENIGLSMLAKLKELA [RPC31] | 3.14 ± 0.071 | 3.46 ± 0.074 | 3.05 ± 0.092 | 3.16 ± 0.053 |
| ALKNACNSIINKLGALK [RPB11] | 2.89 ± 0.29 |  | 2.95 ± 0.11 | 3.17 ± 0.15 |
| YLKKREAGEVKDDGAFV [RPL10] | 3.16 ± 0.11 | 2.8 ± 0.2 | 3.37 ± 0.044 | 3.27 ± 0.1 |
| KSRIVKVVGPRGTLTKN [RPL9A] | 2.66 ± 0.074 | 2.92 ± 0.058 | 2.65 ± 0.052 | 2.71 ± 0.033 |
| AKPDNLANFSNEVAMNN [SWP82] | 3.22 ± 0.082 | 3.21 ± 0.078 | 3.13 ± 0.052 | 3.23 ± 0.067 |
| KRRIEEEQEKINSAPDF [ISW2] | 3.4 ± 0.2 | 3.58 ± 0.22 | 2.98 ± 0.15 | 3.57 ± 0.099 |
| VIAKLNHNQFECKGCDN [RPB2] | 2.93 ± 0.054 | 3.14 ± 0.067 | 3 ± 0.05 | 3.01 ± 0.097 |
| TFRIFHNHDTGCDENDS [YDL088C/ASM4] | 2.92 ± 0.1 | 3.09 ± 0.14 | 3.27 ± 0.1 | 3.11 ± 0.1 |
| SLLEKDIDAVNGAVGKR [ISW2] | 2.92 ± 0.09 | 3.24 ± 0.081 | 2.9 ± 0.098 | 3.31 ± 0.064 |
| PASKQGYLITPPKHTEL [SSN2] |  | 3.31 ± 0.3 | 2.49 ± 0.17 |  |
| TQIANAGASPMVNTQQP [PRE4] | 2.94 ± 0.11 | 3.07 ± 0.09 | 2.82 ± 0.075 | 2.82 ± 0.18 |
| NNNQKIDDNYIVVVIEI [SRB8] | 3.16 ± 0.078 | 3.01 ± 0.065 | 3.29 ± 0.083 | 3.11 ± 0.1 |
| MKNENANPKKLALMTAH [CDC53] | 2.12 ± 0.039 | 2.33 ± 0.046 | 2.09 ± 0.048 | 1.79 ± 0.032 |
| LKGKINNEMKSLQRSKS [SMC1] |  | 3.34 ± 0.19 | 3.11 ± 0.2 | 3.44 ± 0.099 |
| FEWDISNSDNCPEEFAE [SNF5] | 3.12 ± 0.11 | 3.19 ± 0.15 | 3.11 ± 0.1 | 3.29 ± 0.072 |
| SHISASASPHLAPNMQL [SNF2] | 2.92 ± 0.041 | 2.83 ± 0.04 | 2.93 ± 0.033 | 3.1 ± 0.032 |
| TKDLLSKSPSEWQDIIH [CSE2] | 3.1 ± 0.082 | 2.99 ± 0.077 | 3.07 ± 0.075 | 3.17 ± 0.049 |
| PSTAIHTSPHQPSDVKP [SIR4] | 2.81 ± 0.052 | 2.95 ± 0.049 | 2.76 ± 0.046 | 2.36 ± 0.034 |
| FLEKEKQLTLLRSKLFQ [SMC4] | 2.46 ± 0.094 | 1.99 ± 0.067 | 1.86 ± 0.12 | 2.56 ± 0.043 |
| SKKLDVTVEQLRSIYHQ [NSL1] | 2.42 ± 0.067 | 2.25 ± 0.06 | 1.85 ± 0.055 | 2.08 ± 0.057 |
| DIIQGNPLMYSGGNNTA [PCI8] | 3.17 ± 0.082 | 3.13 ± 0.08 | 3.32 ± 0.047 | 3.24 ± 0.072 |
| PKKYKENNTDSARKELE [SMC1] | 2.96 ± 0.059 | 2.8 ± 0.065 | 3.09 ± 0.046 | 3.31 ± 0.057 |
| PIGEAGDFGGWFCPCHG [RIP1] | 2 ± 0.1 | 1.97 ± 0.05 | 2.87 ± 0.08 | 3.18 ± 0.075 |
